What was measured:
[1] = biological target: HLA-A*02:06; test: IEDB peptide-MHC binding, purified MHC/competitive/radioactivity; filed as Kd, often an IC50 or EC50 that approximates it; ≥ and ≤ were set here for values at or beyond the usual limits of such assays
[2] = biological target: HLA-A*02:03; test: as above
[3] = biological target: HLA-A*02:02; test: as above
[4] = biological target: HLA-A*69:01; test: IEDB peptide-MHC binding, purified MHC/direct/fluorescence; filed as Kd, often an IC50 or EC50 that approximates it; ≥ and ≤ were set here for values at or beyond the usual limits of such assays
[5] = biological target: HLA-A*02:01; test: as above
[6] = biological target: HLA-A*02:01; test: IEDB peptide-MHC binding, purified MHC/competitive/fluorescence; ≥ and ≤ were set here for values at or beyond the usual limits of such assays
[7] = biological target: HLA-A*01:01; test: IEDB peptide-MHC binding, purified MHC/competitive/radioactivity; filed as Kd, often an IC50 or EC50 that approximates it; ≥ and ≤ were set here for values at or beyond the usual limits of such assays
[8] = biological target: HLA-A*24:02; test: as above
[9] = biological target: HLA-A*23:01; test: as above
[10] = biological target: HLA-A*29:02; test: as above
[11] = biological target: HLA-A*30:02; test: as above
[12] = biological target: HLA-A*02:01; test: IEDB peptide-MHC binding, purified MHC/competitive/fluorescence; filed as Kd, often an IC50 or EC50 that approximates it; ≥ and ≤ were set here for values at or beyond the usual limits of such assays
[13] = source organism: Vaccinia virus WR
[14] = source organism: SARS coronavirus Tor2
[15] = source organism: Salmonella enterica subsp. enterica serovar Typhimurium
[16] = source organism: Dengue virus 4 Philippines/H241/1956
[17] = source organism: Mammarenavirus whitewaterense
[18] = source organism: Dengue virus 2 Jamaica/1409/1983
[19] = source organism: Dengue virus 4 Dominica/814669/1981
[20] = source organism: Mammarenavirus tacaribeense
[21] = source organism: Vibrio vulnificus YJ016
[22] = source organism: Mammarenavirus guanaritoense
[23] = source organism: Pseudomonas aeruginosa
[24] = source organism: Vaccinia virus Copenhagen

Question: Which results are given for GINNVQSLI?
Answer: Kd [1, 13]: 1.73 µM; Kd [2, 13]: 0.378 µM; Kd [3, 13]: 0.474 µM

Question: What does the source list for ALDGVLSTFV?
Answer: Kd [1, 14]: 0.14 µM; Kd [2, 14]: 0.0279 µM; Kd [3, 14]: 0.00326 µM

Question: For ALSMADIFI, which Kd [4, 15] is on record?
Answer: 1.08 µM

Question: And the Kd [5, 15]?
Answer: 0.106 µM

Question: Which Kd [1, 13] does the source give for GIIITVGMLI here?
Answer: 1.13 µM

Question: What about the Kd [2, 13] of the same sequence?
Answer: 0.595 µM

Question: And the Kd [3, 13]?
Answer: 3.58 µM

Question: With VVHGYFTEV as the sequence, how does the Kd [1, 14] read?
Answer: 0.00263 µM

Question: And the Kd [2, 14]?
Answer: 0.00327 µM

Question: What about the Kd [3, 14] of the same sequence?
Answer: 0.0172 µM

Question: KLAGGVAVL was tested. Which IC50 ([6]; source organism: Porphyromonas gingivalis) did it give?
Answer: 0.12 µM

Question: For LISFFGLFDI, which Kd [1, 13] is on record?
Answer: 0.171 µM

Question: What about the Kd [2, 13] of the same sequence?
Answer: 0.108 µM

Question: And the Kd [3, 13]?
Answer: 0.0759 µM

Question: How did the Kd [7, 16] turn out when ASEAVNDSRF was run?
Answer: ≥ 31.4 µM

Question: What does the source list for LQFIVFLLL?
Answer: Kd [8, 17]: ≥ 77.5 µM; Kd [9, 17]: 11.3 µM; Kd [10, 17]: 4.67 µM

Question: With SLTQVKELGI as the sequence, how does the Kd [1, 13] read?
Answer: 0.157 µM

Question: And the Kd [2, 13]?
Answer: 0.0754 µM

Question: What about the Kd [3, 13] of the same sequence?
Answer: 0.00975 µM

Question: With GLIAIVMVTI as the sequence, how does the Kd [1, 14] read?
Answer: 0.137 µM

Question: What about the Kd [2, 14] of the same sequence?
Answer: 0.0189 µM

Question: And the Kd [3, 14]?
Answer: 0.00763 µM

Question: How did the Kd ([8]; source organism: Dengue virus 3 Martinique/1243/1999) turn out when TWRDMAHTLI was run?
Answer: 0.387 µM

Question: For RGSGQVGTY, which Kd [11, 18] is on record?
Answer: 0.208 µM

Question: Which Kd [1, 13] does the source give for FVATFRDML here?
Answer: 0.487 µM

Question: And the Kd [2, 13]?
Answer: 0.206 µM

Question: What about the Kd [3, 13] of the same sequence?
Answer: 2.35 µM

Question: How did the Kd [1, 13] turn out when NASKTINALV was run?
Answer: 3.22 µM

Question: And the Kd [2, 13]?
Answer: 0.274 µM

Question: And the Kd [3, 13]?
Answer: 0.765 µM

Question: For NTFVNFNSV, which Kd [1, 13] is on record?
Answer: 0.000346 µM

Question: What about the Kd [2, 13] of the same sequence?
Answer: 0.0996 µM

Question: And the Kd [3, 13]?
Answer: 5.02 µM

Question: Which Kd [7, 16] does the source give for TSETFSMGLL here?
Answer: 0.242 µM

Question: With QVFLKMRRIF as the sequence, how does the Kd [8, 17] read?
Answer: 12.3 µM

Question: What about the Kd [9, 17] of the same sequence?
Answer: 0.401 µM

Question: What about the Kd [10, 17] of the same sequence?
Answer: 9.08 µM

Question: AMISLAKKI was tested. Which Kd ([12]; source organism: Vaccinia virus WR 65-16) did it give?
Answer: 0.903 µM

Question: How did the Kd ([8]; source organism: Homo sapiens) turn out when IYKAPSENW was run?
Answer: 0.039 µM

Question: With FLDWIKDIM as the sequence, how does the Kd [1, 13] read?
Answer: 0.162 µM

Question: And the Kd [2, 13]?
Answer: 0.297 µM

Question: What about the Kd [3, 13] of the same sequence?
Answer: 0.00078 µM

Question: Which Kd [11, 19] does the source give for KAALSEGVY here?
Answer: 0.015 µM

Question: How did the Kd [8, 16] turn out when NFLEVEDYGF was run?
Answer: ≥ 31.7 µM

Question: What about the Kd [9, 16] of the same sequence?
Answer: 0.0547 µM

Question: Which Kd [1, 13] does the source give for LLPLTSLVI here?
Answer: 1.43 µM

Question: What about the Kd [2, 13] of the same sequence?
Answer: 0.621 µM

Question: What about the Kd [3, 13] of the same sequence?
Answer: 2.39 µM

Question: IAEYIAGLKI was tested. Which Kd [1, 13] did it give?
Answer: 10.2 µM

Question: What about the Kd [2, 13] of the same sequence?
Answer: ≥ 23 µM

Question: And the Kd [3, 13]?
Answer: ≥ 28.6 µM

Question: Which Kd ([12]; source organism: Escherichia coli E22) does the source give for ALSPPLLLL here?
Answer: 0.157 µM

Question: Which results are given for NQLDSSNKSM?
Answer: Kd [1, 13]: 0.635 µM; Kd [2, 13]: ≥ 30 µM; Kd [3, 13]: 1.78 µM

Question: SEELSFTVV was tested. Which IC50 ([6]; source organism: Zaire ebolavirus) did it give?
Answer: ≥ 145 µM

Question: For TAIRAGYSIV, which Kd [1, 13] is on record?
Answer: 8.59 µM

Question: What about the Kd [2, 13] of the same sequence?
Answer: 0.0718 µM

Question: And the Kd [3, 13]?
Answer: 6.82 µM

Question: Which results are given for TLNTLITLI?
Answer: Kd [1, 13]: 0.941 µM; Kd [2, 13]: 0.000596 µM; Kd [3, 13]: 0.000989 µM

Question: With YNCKCCWFA as the sequence, how does the Kd [1, 20] read?
Answer: ≥ 77 µM

Question: What about the Kd [2, 20] of the same sequence?
Answer: ≥ 31.8 µM

Question: What about the Kd [3, 20] of the same sequence?
Answer: 16 µM

Question: What does the source list for RQLQREGLV?
Answer: Kd [4, 21]: ≥ 20 µM; Kd [5, 21]: ≥ 5 µM

Question: ITHTNITTLL was tested. Which Kd [1, 13] did it give?
Answer: 14.8 µM

Question: And the Kd [2, 13]?
Answer: 0.101 µM

Question: And the Kd [3, 13]?
Answer: 1.69 µM

Question: Which Kd [1, 13] does the source give for TIVSRSSRGV here?
Answer: 3.74 µM

Question: And the Kd [2, 13]?
Answer: 0.0111 µM

Question: And the Kd [3, 13]?
Answer: 4.7 µM

Question: How did the Kd [11, 16] turn out when GTTVVKVKY was run?
Answer: 0.244 µM

Question: With FLHEDLEKL as the sequence, how does the Kd ([12]; source organism: unidentified) read?
Answer: 0.01 µM

Question: Which Kd [1, 13] does the source give for MIHKTYIDV here?
Answer: 0.126 µM

Question: What about the Kd [2, 13] of the same sequence?
Answer: 0.0152 µM

Question: What about the Kd [3, 13] of the same sequence?
Answer: 1.4 µM

Question: Which Kd [7, 18] does the source give for VSQHNYRPGY here?
Answer: 6.79 µM

Question: And the Kd [11, 18]?
Answer: 0.385 µM

Question: Which Kd [8, 18] does the source give for DWIPLALTI here?
Answer: 0.016 µM

Question: DTMRIYCSL was tested. Which Kd [1, 13] did it give?
Answer: 2.92 µM

Question: What about the Kd [2, 13] of the same sequence?
Answer: 5.46 µM

Question: And the Kd [3, 13]?
Answer: 5.84 µM

Question: MYEMHRESLL was tested. Which Kd [8, 22] did it give?
Answer: 3.17 µM

Question: And the Kd [9, 22]?
Answer: 0.87 µM

Question: What about the Kd [10, 22] of the same sequence?
Answer: 9.88 µM

Question: With EDLIEWAME as the sequence, how does the IC50 ([6]; source organism: Vaccinia virus) read?
Answer: ≥ 94.7 µM

Question: How did the Kd [4, 23] turn out when ACMDGFEVV was run?
Answer: 2.7 µM

Question: And the Kd [5, 23]?
Answer: 0.29 µM

Question: With DIPTFNSLNT as the sequence, how does the Kd [1, 13] read?
Answer: 0.0453 µM

Question: What about the Kd [2, 13] of the same sequence?
Answer: 16.6 µM

Question: What about the Kd [3, 13] of the same sequence?
Answer: 2.02 µM

Question: For EIMDKEQLL, which Kd [1, 13] is on record?
Answer: ≥ 26.5 µM

Question: What about the Kd [2, 13] of the same sequence?
Answer: 0.427 µM

Question: And the Kd [3, 13]?
Answer: 0.183 µM

Question: Which Kd [1, 13] does the source give for CTMERTNDL here?
Answer: 0.0957 µM

Question: What about the Kd [2, 13] of the same sequence?
Answer: 0.0255 µM

Question: And the Kd [3, 13]?
Answer: 0.0362 µM

Question: Which Kd ([12]; source organism: Influenza A virus (A/parakeet/Chiba/1/97(H9N2))) does the source give for RQMATTTNPL here?
Answer: 0.393 µM

Question: What does the source list for ESQMLIPKSY?
Answer: Kd [7, 19]: 8.37 µM; Kd [11, 19]: 1.21 µM

Question: Which IC50 ([6]; source organism: Variola virus) does the source give for QIGDIIIAV here?
Answer: 0.293 µM

Question: Which IC50 [6, 24] does the source give for SISKSNAKC here?
Answer: 35.8 µM

Question: What does the source list for KLLNMRDLI?
Answer: Kd [1, 13]: 0.0438 µM; Kd [2, 13]: 0.329 µM; Kd [3, 13]: 0.496 µM

Question: Which IC50 [6, 24] does the source give for QLLEAVYGN here?
Answer: 21.6 µM

Question: Which Kd [11, 18] does the source give for YKTWAYHGSY here?
Answer: 4.22 µM

Question: How did the Kd [1, 13] turn out when IMDKEQLLKI was run?
Answer: 1.34 µM

Question: And the Kd [2, 13]?
Answer: 0.288 µM

Question: What about the Kd [3, 13] of the same sequence?
Answer: 0.311 µM
